From PMC10071816 (bioRxiv, 2023)

Key:
[1] = target: CCT1, subunit of human TRiC (human, UniProt P17987 1-556); experiment: cross-linking
[2] = target: T1, CCT2, subunit of human TRiC (human, UniProt P78371 1-535); experiment: cross-linking
T1 sequence: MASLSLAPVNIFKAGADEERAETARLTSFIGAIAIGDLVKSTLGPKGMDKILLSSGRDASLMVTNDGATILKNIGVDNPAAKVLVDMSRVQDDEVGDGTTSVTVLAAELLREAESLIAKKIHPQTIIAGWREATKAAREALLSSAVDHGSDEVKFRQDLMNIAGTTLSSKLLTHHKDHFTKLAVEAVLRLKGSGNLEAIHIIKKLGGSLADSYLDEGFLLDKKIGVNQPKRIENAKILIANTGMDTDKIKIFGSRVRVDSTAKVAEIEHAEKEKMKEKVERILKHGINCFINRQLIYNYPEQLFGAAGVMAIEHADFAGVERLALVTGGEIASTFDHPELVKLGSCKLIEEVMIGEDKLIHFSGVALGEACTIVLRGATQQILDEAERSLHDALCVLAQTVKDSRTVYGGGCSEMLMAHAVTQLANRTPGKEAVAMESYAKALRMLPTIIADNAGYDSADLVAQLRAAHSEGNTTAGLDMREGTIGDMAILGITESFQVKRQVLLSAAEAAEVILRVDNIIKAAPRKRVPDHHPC

[3] = target: CCT5, subunit of human TRiC (human, UniProt P48643 1-541); experiment: cryo-EM structure
[4] = target: human chaperonin TCP-1 ring complex (TRiC/CCT) (human) (UniProt P17987); experiment: cryo-EM structure

Sequence of CCT1, subunit of human TRiC (P17987 whole entry): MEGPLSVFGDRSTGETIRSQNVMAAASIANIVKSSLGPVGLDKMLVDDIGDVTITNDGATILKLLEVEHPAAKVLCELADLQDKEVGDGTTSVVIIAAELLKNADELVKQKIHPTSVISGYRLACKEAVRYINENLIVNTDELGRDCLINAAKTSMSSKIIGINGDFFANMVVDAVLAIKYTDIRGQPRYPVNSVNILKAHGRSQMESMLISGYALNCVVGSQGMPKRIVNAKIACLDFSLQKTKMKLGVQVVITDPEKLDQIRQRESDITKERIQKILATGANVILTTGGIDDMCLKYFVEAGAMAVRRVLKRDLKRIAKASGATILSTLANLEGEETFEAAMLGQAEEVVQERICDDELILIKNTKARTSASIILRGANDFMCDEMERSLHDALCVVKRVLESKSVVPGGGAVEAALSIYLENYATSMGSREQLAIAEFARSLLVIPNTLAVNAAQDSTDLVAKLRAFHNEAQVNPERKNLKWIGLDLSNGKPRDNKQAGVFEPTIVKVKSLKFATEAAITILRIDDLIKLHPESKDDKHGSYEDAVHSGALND
Sequence of CCT5, subunit of human TRiC (P48643 whole entry): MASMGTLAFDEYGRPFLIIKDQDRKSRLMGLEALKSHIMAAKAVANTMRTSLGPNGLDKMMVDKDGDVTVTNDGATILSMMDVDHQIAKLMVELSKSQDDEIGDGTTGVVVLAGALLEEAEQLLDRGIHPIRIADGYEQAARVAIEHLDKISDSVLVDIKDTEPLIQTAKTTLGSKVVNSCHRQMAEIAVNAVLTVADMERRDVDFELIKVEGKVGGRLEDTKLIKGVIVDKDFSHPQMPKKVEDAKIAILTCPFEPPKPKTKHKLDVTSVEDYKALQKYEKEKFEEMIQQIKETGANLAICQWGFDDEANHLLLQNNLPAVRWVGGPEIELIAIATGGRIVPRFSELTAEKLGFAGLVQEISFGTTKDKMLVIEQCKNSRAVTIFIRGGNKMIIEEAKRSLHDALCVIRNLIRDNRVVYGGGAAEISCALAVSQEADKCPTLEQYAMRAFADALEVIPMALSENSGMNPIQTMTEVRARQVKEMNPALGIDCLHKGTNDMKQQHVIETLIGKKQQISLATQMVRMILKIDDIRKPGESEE

binding result [1]: binds
binding result [2]: binds
binding result [3]: binds
percent of particles (3D classification) [4]: 22.9%
percent of particles with PhLP2A in both chambers [4]: 9.5%
percent of particles with PhLP2A in one chamber [4]: 14%
B1: phosducin-like protein PhLP2A, full length (natural protein)
chain: MQDPNADTEWNDILRKKGILPPKESLKELEEEAEEEQRILQQSVVKTYEDMTLEELEDHEDEFNEEDERAIEMYRRRRLAEWKATKLKNKFGEVLEISGKDYVQEVTKAGEGLWVILHLYKQGIPLCALINQHLSGLARKFPDVKFIKAISTTCIPNYPDRNLPTIFVYLEGDIKAQFIGPLVFGGMNLTRDELEWKLSESGAIMTDLEENPKKPIEDVLLSSVRRSVLMKRDSDSEGD
